# Several values for one entry are separate records, joined by “and”; a condition that tells them apart may be missing. Identical values can stand only once.
# B1: Escherichia coli dihydrodipicolinate reductase (Ec-DHDPR) (enzyme, E. coli)
# chain: MHDANIRVAIAGAGGRMGRQLIQAALALEGVQLGAALEREGSSLLGSDAGELAGAGKTGVTVQSSLDAVKDDFDVFIDFTRPEGTLNHLAFCRQHGKGMVIGTTGFDEAGKQAIRDAAADIAIVFAANFSVGVNVMLKLLEKAAKVMGDYTDIEIIEAHHRHKVDAPSGTALAMGEAIAHALDKDLKDCAVYSREGHTGERVPGTIGFATVRAGDIVGEHTAMFADIGERLEITHKASSRMTFANGAVRSALWLSGKESGLFDMRDVLDLNNL
# notes: Dihydrodipicolinate reductase (DapB), Escherichia coli; construct not described; theoretical mass of the tetramer printed as 114,800 Da
# B2: Thermotoga maritima dihydrodipicolinate reductase (Tm-DHDPR) (enzyme, T. maritima)
# chain: MKYGIVGYSGRMGQEIQKVFSEKGHELVLKVDVNGVEELDSPDVVIDFSSPEALPKTVDLCKKYRAGLVLGTTALKEEHLQMLRELSKEVPVVQAYNFSIGINVLKRFLSELVKVLEDWDVEIVETHHRFKKDAPSGTAILLESALGKSVPIHSLRVGGVPGDHVVVFGNIGETIEIKHRAISRTVFAIGALKAAEFLVGKDPGMYSFEEVIFGGE
# notes: Dihydrodipicolinate reductase (DapB), Thermotoga maritima; construct not described; theoretical mass of the tetramer printed as 99,380 Da
# B3: Arabidopsis thaliana dihydrodipicolinate reductase 2 (At-DHDPR2) (enzyme, UniProt Q8LB01 54-349, looked up)
# chain: LSMGKSETFEEAGNSVAPGNGISIMVNGCSGKMGKAVIKAADSAGVNIVPTSFGSVEEAGQTVEVCGKEILVHGPTEREKVLSSVFEKYPELIVVDYTIPSAVNDNAELYGKVGVPFVMGTTGGDRTRLYKTVEESKIYAVISPQMGKQVVAFLAAMEIMSEQFPGAFAGYSLEVMESHQASKLDASGTAKAVISCFQKLGVSYDMDQIQLIRDPKQQIEVVGVPEEHVSGHAFHLYHLTSPDKTVSFEFQHNVCGRSIYAEGTVDAVLFLAKKIRSKAEKRIYNMIDVLREGNMR
# notes: Dihydrodipicolinate reductase 2 (At-DHDPR2), Arabidopsis thaliana, plasmid encoding AT3G59890 from TAIR; primers excluded the chloroplast transit peptide as identified by chloroP; residues may remain after TEV cleavage; also called AT3G59890; source: E. coli BL21(DE3) Star, purified (His-Trap, TEV cleavage, second His-trap)
# What was measured:
# [1] = target: the molecule itself; assay: small angle X-ray scattering (SAXS); in-line gel filtration (Superdex 200 5/150), 20 mM Tris.HCl, 150 mM NaCl, pH 8.0, 27°C; initial concentration 2-5 mg/mL; volume and molecular weight by AUTOPOROD, comparison with crystal structures by CRYSOL
# [2] = target: the molecule itself; assay: SEC-MALS; Malvern P3000 column with Viscotek TDA (refractive index, low angle and right angle light scattering); 100 µL of 1.0 mg/mL; 20 mM Tris-HCl, 150 mM NaCl, pH 8.0; 28°C
Protein,stoichiometry N [1],stoichiometry N [2]
B1,4,–
B2,4,–
B3,–,2 and 4

# From PMC3390394, “Characterisation of the First Enzymes Committed to Lysine Biosynthesis in Arabidopsis thaliana” (PLoS ONE, 2012)
